From the nanobody polyreactivity screen of Harvey et al. (2022)

Assay: yeast display, Sf9 membrane polyspecificity reagent, FACS + sequencing; frameworks hold sequencing errors
Outline: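 In a synthetic yeast display library (Saccharomyces cerevisiae BJ5465), nanobody expression was induced with galactose for 36–48 hours. FACS gates were set low and high (top ~1%) using anti-HA fluorescence for expression and streptavidin fluorescence for binding of the Sf9 membrane reagent. Each polyreactivity label is drawn from the gate of origin.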

Sequence	polyreactivity (PSR sort gate)
QFQLVESGGGLVQAGGSLRLSCAASGRIFVRYAMGWYSQAPGKERQLVAAISKSGGSTYYADSVKGRYTISRDNAKNTVYLQMNSLNPEDTAVDYCAADYTGFFPDGSDVDFDYWGQGTQVTVSS	low polyreactivity
QVQLVESGGGLVQAGGSLRLSWAASGRIFVLNAMGSYRQAPGKERELVAAISTGASTNYADSVKGRFTISRDNAKNTVYLKMNSLTPEATAVYYCAAAPGSSGARTSYILAYDYWGLGTQVTVSS	low polyreactivity
QVQLVESGGGLVQAGGSLRLSCAASGSISYRYVMGWYRQAPGKERELVAAITTSGGSTYYADSVKGRFTISRDNAKNTVYLQKNSLKPEDTAVYYCAKVYQADQLRSHYDYWGQGTQVTVSS	high polyreactivity
QVQLVESGGGLVQAGGSLRLSCAASGYIFIWYDMGWYRQAPGKERELVAAISGSGGSTYYADSVKGRFTISRDNAKNTVYLQMNSLKPEDTAVYYCAAYVPRGNSEVIAMDYWGQGTQVTVSS	low polyreactivity
QVQLVESGGGLVQAGGSLRLSCAASGSTFRYYALGWYRQAPGKERELVAAINRSGGSTYYADSVKGRFTISRDNAKNTVDLQMNSLKQEETAVYYCAAPWARHYSNPDDYWGQGTQVTVSS	high polyreactivity
QVQLVESGGGLVQAGGSLRLSCADSGSTFSYYAMGWYRQAPGKEGELVAAISARGGSTNYADSVKGRFTISRDNAKNTVYLQMNSLKPEDTAVYYCAAYDPLVDYFRYAYSDDYWGQGTQVTVSS	high polyreactivity
QVQLVESGGGLVQAGGSLRLSCAASGFSFQLYPMGWYRQAPWKERELVSAISQSGDSTYYADSVKGRFTISRDNAKNTVYLQMNSQKPEDNAVYYFNAVNDGVVWSYPFDFDYWGQGTQVTVSS	low polyreactivity
QVQLVESGGGLVQAGGSLRLSCAASGFIFGVNAMGWYRQAPGKERELVAAITSTGGRTYYADSVKGRFTISRDNAKNTVYLQMNSLKPEDTAVYYCNKRYRDQYGYDYWGQGTQVTVSS	high polyreactivity
QVQHVESGGGLVQAGGSLPLSCAASGITFSKYAMGWYRQAPGKERELVAAITRSGGSTYYADSVKGRFTISRDNAKNTVYLQMNSLKPEDTAVYYCAAKRRERYGQTYGYWGQGTQVTVSS	high polyreactivity
QVQLVESGGVLLQAGGSLRLSCAASGSIFYPYAMGWYRQAPGKERELFAAITYIDADTYYADSVKGRFTISRDNAKNTVYLQMNSLKPEDTAVYYCAAEIPVYQGTGEDDYWGQGTQVTVSS	low polyreactivity
QVQVVESGGGLVQAGGRLRLSCAASGSTFKYYVMGWYRQAPGKERELVAAITRSGSTNYADSVKGRFRISRDNAKNTVYLQMNSLKPEDTAVYYCATDSLRLYGGKRDQYYWGQGTQVTVSS	low polyreactivity
QVQLVESGGGFVQAGGSLRLSCAASGIIFEYYTMGWYRQAPGKERELVASINYDGDSTYYADSVKGRFTISRDNAKNTVYLQMNSLKPEDTAVYYCSAEFYYVYSSFGHYYWGQGTQVTVSS	low polyreactivity
QDQLVESGGGLVQAGGSLRLSCAASGLTFAPYAMGWYREAPGKERELVAAISNGGSTYYADSVKGRFTISRDNAKNTVYLQMISLKPEDTAVYYCADRAFYFWRGYDYWGQGTQVTVSS	high polyreactivity
QVQLVESGGGLVQAGGSLRLSCAASGIIFEFYAMGWYRQAPGKEREFVAAISKNGGRTYYADSVKGRFTISRDNAKTSVYLQLNSLKPEDTAVYYCDARYRPQANKYYYWGQGTQVTVSS	high polyreactivity
QVQLVESGGGLVQAGGSLRLSSAASGRTFFYYAMGWYRQAPGKERELVAVISGSGARTYYADSVKGRFTISRDNAKYTVYLQMNSLKPEDTAVYYWIKVFARSRSSRYQAYDYWGQGTQVTVSS	high polyreactivity
QVQHVESRGGLVQAGGSLRLSCAASGIIFSRNAMGWSRKAPGKERELLSGITSSGGTTYYADSVKGRFTISRDNAKNTVYLQMNSLKAEDTAVYYCAAYSTQNYSYRRYYYWGQGTQVTVSS	high polyreactivity
QVQLVESGGGLVEAGGSLRLSCAASGTFVYNAMGWYIQAPGKERELVAAISWSGSSTYADSVKGRFTISRDNAKNTVYLQMNSLKPEDTAVYYCAADGYGYNTYQQYYKKSSYWGQGTQVSVSS	low polyreactivity
QVQLVESGGGLVQAGGSLRLSCAASGSTFIFNTMGWYRQAPGKERELVASITGDGRTNYADSVKGRFTISRDNAKNTVYLQMNSLKPEDTAVYYCAADGYDQYPLWAPPGDYWGQGTQVTVSS	low polyreactivity
QVQLVESGGGLVQAGGSLRLSCAASGRIFRRYVMGWYRQAPGKERELVARIRIRDSNTYYADSVKGRFTISRDNAKNTVYLQMNSLKPEDTAVYYCNADTWADRSTYDYWGQGTQVTVSS	low polyreactivity
QVQLVESGGGLVQAGGSLRLSCAASGLIIRWYAMGWYRQAPGKERELVAAITRAGSTNYADSVKWRFTISRDNAKNTVYLQMNSLKPEDTAVYYCAAVAVELASEYDYWGQGTQVTVSS	low polyreactivity
QVQLVESGGGLVQAGGSLRLSCAASGSIFWSYAMGWYRQAPGKERELVAAINWSGGRTYYADSVKGRFTISRDNAQNTVYLQMNSLKPEDTAVYYCNAPVHTAQGDEYDYWGQGTQVTVSS	high polyreactivity
QVQLVESGGGLVQAGGSLRLSCAASGSTIVGYAMGWYRQAPGKERELVAAISGSGTSTYYADSVKGRFTISRDNAKNTVYLQMNSLKPEDSAVYYCNADPIFVYSSYNYWGQGTQVTVSS	low polyreactivity

Sequence	polyreactivity (PSR sort gate)
QVQLVESGGGLVQAGGSLRLSCAASGFIFARYAMGWYRQAPGKERELVAAISWSGARTYYADSVKGRFTISRDNAKNTVYLQMNSLKPEDTAVYYCNADYRKVTGDSYDYWGQGTQVTVSS	high polyreactivity
QVQLVESGGGLVQAGGSLRLSCAASGSTIYGYTMGWYRQAPGKEREMVAVITSGGSTYFADSVKGRFTISRDNAKNTVYLQMNSLKPEVTAVYYCAKRYGYTAYGRPWRIGRTYDYWGQGTQVTVSS	low polyreactivity
QDQLVESGGGLVHAGCSLRLSCAASGRTFYGNAMGWYRQAPGKERELVAGITRGGSTYYADSVKGRFTISRDNAKNNVYLQMNSLKPEDTAVYYCAATRYYSWGSRGGYWGQGTQVSVSS	high polyreactivity
QVQLVESGGGLVQAGGSLRLSCAASGFNFPVNAMGWYRQAPGTERELVASITRSGGRTYYADSVKGRLTISRDNAKNTVYLQMNSLKPEDTAVYYCAARYLQEYVYEYDYWGQGTQVTVSS	high polyreactivity
QVQLVESGGGLVQAGGSLRISCAASGSIFRWNAMGWYRQAPGKERELVAAINWSGGSTYYADSVKGRFTISRDNAKNTVYLQMNSLKPEDTAVYYCAVDYWSGITWVEYWGQGTQVTVSS	high polyreactivity
QVQLVESGGGLVQAGGSLRLSCAASGYIFHDNAMGWYRQAPGKERELVAGITTGGSTYYADSVKGRFTISRDNAKYTVYLQMNSLKPEDTAVYYCAAKVWSRSFYKYYYWGQGTQVTVSS	high polyreactivity
QVQLVESGGGLVQAGGSLRLSCAASGSTFGHYAMGWYRQAPGKERELVAVISRSGARTYYADSVKGRFTISRDNAKNTVYLQMNSLKPEDTAVYYCNAGPYGGNPFDYWGQGTQVTVSS	high polyreactivity
QVQLLESGGGLVQAGGSLRLSCAASGLTVYGYVMAWYRHAPGKERELVASISRSGCRTYYADSVKGRFTISRDNEKNTVYLQMNSLKPEDTAVYYCAADDQVGQEDDYWGQGTQVTVSS	low polyreactivity
QVQLVKSGGGLVQAGGSLRLSCAASGFIIPEYTMGWYRQAPGKERELVAAISGSGGSTYYADSVKGRFTISRDNAKNTVYLQMNSLKPEDTAVYYCAASYAVSRYLQTYAHAHGYWGQGTQVTVSS	low polyreactivity
QVQLVESGGGLVQAGGSLRLSCAASGRTFYFYAMGWYRQAPGKERELVASITSSGGNTYYADSVKGRFTISRDNAKNTVYLQMNSLKPEDTAVYYCAARWFPWLQWKRYDYWGQGTQVTVSS	low polyreactivity
QVQLVESGGGLVQAGGSLRLSCAASGRTFVYYAMGWYRQAPGKERELVAAISRSGSTYYADSVKGRFTISRDNAKNTVYLQMNSLKPEDTAVYYCAARSVYTGRPYYYWGQGTQVTVSS	high polyreactivity
QVQLVESGGGLVQAGGSLRLSCAASGGTFTGYAMGWYRQAPGKERELVAAIRSRGGSTYYADSVKGRFTISRDNAKNTVYLQLNSLKPEDTAFYYCNAVSRFSYGYDYWGQGTQVSVSS	high polyreactivity
QVQLVESGGGLVQAGRSLRLSCAASGYIIYPNAMGWYRQAPGKERELVAAITSGGSTTYADSVKGRFTISRDNAKNTVYVQMNCLKPEDSAVYYCAARFVLWSRTYYSWGQGTQVTVSS	high polyreactivity
QVQLVESGGGLVQAGGSLRLSCAASGSTFPDNAMVWYRQAPGKEREFVATITWRGGRTNYADSVKGRFTISRDNAMNTVYLQMNSLKPEDTAFYYCDKVVRYARSNEYDTWGQGTQLTVSS	low polyreactivity
QVQLVESGGGLVQAGGSLRLSCAASGSTLYHYDMGWYRQAPGKERELVAAITTSGDSTYYADSVKGRFTISRDNAKNTVYLQMNSLKPEDTAVYYCNADVFKTVFYIDRYYYWGQGTQVTVSS	low polyreactivity
QVQLVESGGGLVQAGGSLRLSCAASGITFHGYAMGWDRQAPGKERELVAAISDSGSSTYYADSVKGRFTISRDNAKNTVYLQMNSLKPEHTAVYYCAAVSGFYDQYDYWGQGTQVTVSS	low polyreactivity
QVQLEDSGGGLVQAGGRLRLTCAASGSIFSLNAMGWSRKAPGKERELVAAINSGGTTNYADSVKGRFTISRDNAKNTVYLQMNSLKPEDSAVYYCATDGYYYYYRVYKFDYWGLGTQVTVSS	low polyreactivity
QVQLVESGGGLVQAGGSLRLSCAASGRIFVVYVMGWYRQAPGKEREFVAAITWGGGNTYYADSVKGRFTISRDNAKNTVYLQMNSLIPEDTAVYYCAAAPRKYVWMDYWGQGTQVTVSS	low polyreactivity
QVQLVESGGGLVQAGGSLRLSCAASGRIFGRNTMGWYRQAPGKERELVASITFGGVSTYYADSVKGRFTISRDNAKNTVYLQMNSLKPEDTAVYYCAAVLINYEGYDSWGQGTQVTVSS	low polyreactivity
QVQLVESGGGLVQAGGSLRLSCAASGFIFYKYTMGWYRQAPGKERELVAAISTSGGRTYYADSVKGRFTISRDNAKNTVYLQMNSLKPEDTAVYYCAAQYSYPYYKVTLYYWGQGTQVTVSS	high polyreactivity
QVQLVESGGGLVQAGGSLRLSCAASGSIFDDYAMGWYRQAPGKERELVAAISWSGGRTYYADSVKGRFTISRDNAKNTVYLQMNSLKPEDTAVYYCAASTGVRSRRYYYWGQGTQVTVSS	low polyreactivity
